Measurements: the MegaScale stability set (Tsuboyama et al. 2023)

B1: EHEE_rd3_0053 (parent)
chain: TYTFKVDNKDQAKKAAKWAKKLGLSFQIEKHGDTFKITVQ

Variants of: B1
Assay: folding stability dG (cDNA display proteolysis); higher = more stable
Settings: PBS, room temperature

Variant	folding stability dG [kcal/mol]
TYTFKVDNKDQAKKAAKWAKKLGLHFQIEKHGDTFKITVQ [S25H]	2.29
TYTFKVDNKDQAKKAAKWAKKLGLEFQIEKHGDTFKITVQ [S25E]	2.21
TYTFKVDNKDQAKKAAKWAKKLGLIFQIEKHGDTFKITVQ [S25I]	2.43
TYTFKVDNKDQAKKAAKWAKKLGLMFQIEKHGDTFKITVQ [S25M]	2.29
TYTFKVDNKDQAKKAAKWAKKLGLFFQIEKHGDTFKITVQ [S25F]	2.31
TYTFKVDNKDQAKKAAKWAKKLGLGFQIEKHGDTFKITVQ [S25G]	1.89
TYTFKVDNKDQAKKAAKWAKKLGLLFQIEKHGDTFKITVQ [S25L]	2.39
TYTFKVDNKDQAKKAAKWAKKLGLNFQIEKHGDTFKITVQ [S25N]	2.36
TYTFKVDNKDQAKKAAKWAKKLGLPFQIEKHGDTFKITVQ [S25P]	1.97
TYTFKVDNKDQAKKAAKWAKKLGLWFQIEKHGDTFKITVQ [S25W]	2.38
TYTFKVDNKDQAKKAAKWAKKLGLKFQIEKHGDTFKITVQ [S25K]	2.46
TYTFKVDNKDQAKKAAKWAKKLGLDFQIEKHGDTFKITVQ [S25D]	2.18
TYTFKVDNKDQAKKAAKWAKKLGLVFQIEKHGDTFKITVQ [S25V]	2.42
TYTFKVDNKDQAKKAAKWAKKLGLQFQIEKHGDTFKITVQ [S25Q]	2.37
TYTFKVDNKDQAKKAAKWAKKLGLRFQIEKHGDTFKITVQ [S25R]	2.4
TYTFKVDNKDQAKKAAKWAKKLGLAFQIEKHGDTFKITVQ [S25A]	2.36
TYTFKVDNKDQAKKAAKWAKKLGLYFQIEKHGDTFKITVQ [S25Y]	2.18
TYTFKVDNKDQAKKAAKWAKKLGLTFQIEKHGDTFKITVQ [S25T]	2.45
TYTFKVDNKDQAKKAAKWAKKLGLSFQIEKLGDTFKITVQ [H31L]	2.59
TYTFKVDNKDQAKKAAKWAKKLGLSFQIEKIGDTFKITVQ [H31I]	2.89
TYTFKVDNKDQAKKAAKWAKKLGLSFQIEKCGDTFKITVQ [H31C]	3.09
TYTFKVDNKDQAKKAAKWAKKLGLSFQIEKSGDTFKITVQ [H31S]	2.45
TYTFKVDNKDQAKKAAKWAKKLGLSFQIEKNGDTFKITVQ [H31N]	2.42
TYTFKVDNKDQAKKAAKWAKKLGLSFQIEKAGDTFKITVQ [H31A]	2.41
TYTFKVDNKDQAKKAAKWAKKLGLSFQIEKPGDTFKITVQ [H31P]	0.239

Variant	folding stability dG [kcal/mol]
TYTFKVDNKDQAKKAAKWAKKLGLSFQIEKYGDTFKITVQ [H31Y]	2.45
TYTFKVDNKDQAKKAAKWAKKLGLSFQIEKDGDTFKITVQ [H31D]	2.97
TYTFKVDNKDQAKKAAKWAKKLGLSFQIEKEGDTFKITVQ [H31E]	2.93
TYTFKVDNKDQAKKAAKWAKKLGLSFQIEKGGDTFKITVQ [H31G]	1.34
TYTFKVDNKDQAKKAAKWAKKLGLSFQIEKMGDTFKITVQ [H31M]	2.68
TYTFKVDNKDQAKKAAKWAKKLGLSFQIEKTGDTFKITVQ [H31T]	2.66
TYTFKVDNKDQAKKAAKWAKKLGLSFQIEKQGDTFKITVQ [H31Q]	2.65
TYTFKVDNKDQAKKAAKWAKKLGLSFQIEKRGDTFKITVQ [H31R]	2.08
TYTFKVDNKDQAKKAAKWAKKLGLSFQIEKFGDTFKITVQ [H31F]	2.55
TYTFKVDNKDQAKKAAKWAKKLGLSFQIEKWGDTFKITVQ [H31W]	2.41
TYTFKVDNKDQAKKAAKWAKKLGLSFQIEKVGDTFKITVQ [H31V]	2.87
TYTFKVDNKDQAKKAAKWAKKLGLSFQIEKKGDTFKITVQ [H31K]	2.14
TYTFKVDNKDQAKKAAKWAKKLGLSWQIEKHGDTFKITVQ [F26W]	1.88
TYTFKVDNKDQAKKAAKWAKKLGLSYQIEKHGDTFKITVQ [F26Y]	2.29
TYTFKVDNKDQAKKAAKWAKKLGLSTQIEKHGDTFKITVQ [F26T]	1.34
TYTFKVDNKDQAKKAAKWAKKLGLSLQIEKHGDTFKITVQ [F26L]	2.13
TYTFKVDNKDQAKKAAKWAKKLGLSQQIEKHGDTFKITVQ [F26Q]	-0.496
TYTFKVDNKDQAKKAAKWAKKLGLSSQIEKHGDTFKITVQ [F26S]	1.03
TYTFKVDNKDQAKKAAKWAKKLGLSGQIEKHGDTFKITVQ [F26G]	-0.311
TYTFKVDNKDQAKKAAKWAKKLGLSIQIEKHGDTFKITVQ [F26I]	2.64
TYTFKVDNKDQAKKAAKWAKKLGLSNQIEKHGDTFKITVQ [F26N]	-0.442
TYTFKVDNKDQAKKAAKWAKKLGLSVQIEKHGDTFKITVQ [F26V]	2.54
TYTFKVDNKDQAKKAAKWAKKLGLSAQIEKHGDTFKITVQ [F26A]	1.81
TYTFKVDNKDQAKKAAKWAKKLGLSPQIEKHGDTFKITVQ [F26P]	0.848
TYTFKVDNKDQAKKAAKWAKKLGLSCQIEKHGDTFKITVQ [F26C]	2.68

Variant	folding stability dG [kcal/mol]
TYTFKVDNKDQAKKAAKWAKKLGLSHQIEKHGDTFKITVQ [F26H]	1.02
TYTFKVDNKDQAKKAAKWAKKLGLSMQIEKHGDTFKITVQ [F26M]	2.05
TYTFKVDNKDQAKKAAKWAKKLGLSFWIEKHGDTFKITVQ [Q27W]	2.62
TYTFKVDNKDQAKKAAKWAKKLGLSFRIEKHGDTFKITVQ [Q27R]	2.61
TYTFKVDNKDQAKKAAKWAKKLGLSFYIEKHGDTFKITVQ [Q27Y]	2.58
TYTFKVDNKDQAKKAAKWAKKLGLSFAIEKHGDTFKITVQ [Q27A]	2.31
TYTFKVDNKDQAKKAAKWAKKLGLSFNIEKHGDTFKITVQ [Q27N]	2.29
TYTFKVDNKDQAKKAAKWAKKLGLSFTIEKHGDTFKITVQ [Q27T]	2.71
TYTFKVDNKDQAKKAAKWAKKLGLSFCIEKHGDTFKITVQ [Q27C]	2.84
TYTFKVDNKDQAKKAAKWAKKLGLSFFIEKHGDTFKITVQ [Q27F]	2.6
TYTFKVDNKDQAKKAAKWAKKLGLSFKIEKHGDTFKITVQ [Q27K]	2.64
TYTFKVDNKDQAKKAAKWAKKLGLSFEIEKHGDTFKITVQ [Q27E]	2.22
TYTFKVDNKDQAKKAAKWAKKLGLSFHIEKHGDTFKITVQ [Q27H]	2.52
TYTFKVDNKDQAKKAAKWAKKLGLSFVIEKHGDTFKITVQ [Q27V]	2.62
TYTFKVDNKDQAKKAAKWAKKLGLSFLIEKHGDTFKITVQ [Q27L]	2.42
TYTFKVDNKDQAKKAAKWAKKLGLSFGIEKHGDTFKITVQ [Q27G]	1.53
TYTFKVDNKDQAKKAAKWAKKLGLSFSIEKHGDTFKITVQ [Q27S]	2.61
TYTFKVDNKDQAKKAAKWAKKLGLSFIIEKHGDTFKITVQ [Q27I]	2.67
TYTFKVDNKDQAKKAAKWAKKLGLSFMIEKHGDTFKITVQ [Q27M]	2.54
TYTFKVDNKDQAKKAAKWAKKLGLSFDIEKHGDTFKITVQ [Q27D]	1.9
TYTFKVDNKDQAKKAAKWAKKLGLSFQIESHGDTFKITVQ [K30S]	2.03
TYTFKVDNKDQAKKAAKWAKKLGLSFQIEIHGDTFKITVQ [K30I]	2.15
TYTFKVDNKDQAKKAAKWAKKLGLSFQIEEHGDTFKITVQ [K30E]	2.04
TYTFKVDNKDQAKKAAKWAKKLGLSFQIEDHGDTFKITVQ [K30D]	1.84
TYTFKVDNKDQAKKAAKWAKKLGLSFQIEWHGDTFKITVQ [K30W]	1.64

Variant	folding stability dG [kcal/mol]
TYTFKVDNKDQAKKAAKWAKKLGLSFQIEQHGDTFKITVQ [K30Q]	2.48
TYTFKVDNKDQAKKAAKWAKKLGLSFQIEVHGDTFKITVQ [K30V]	2.21
TYTFKVDNKDQAKKAAKWAKKLGLSFQIEAHGDTFKITVQ [K30A]	2.21
TYTFKVDNKDQAKKAAKWAKKLGLSFQIETHGDTFKITVQ [K30T]	2.04
TYTFKVDNKDQAKKAAKWAKKLGLSFQIEGHGDTFKITVQ [K30G]	1.57
TYTFKVDNKDQAKKAAKWAKKLGLSFQIERHGDTFKITVQ [K30R]	2.5
TYTFKVDNKDQAKKAAKWAKKLGLSFQIEMHGDTFKITVQ [K30M]	2.16
TYTFKVDNKDQAKKAAKWAKKLGLSFQIEPHGDTFKITVQ [K30P]	2.09
TYTFKVDNKDQAKKAAKWAKKLGLSFQIELHGDTFKITVQ [K30L]	1.98
TYTFKVDNKDQAKKAAKWAKKLGLSFQIENHGDTFKITVQ [K30N]	1.88
TYTFKVDNKDQAKKAAKWAKKLGLSFQIEFHGDTFKITVQ [K30F]	1.91
TYTFKVDNKDQAKKAAKWAKKLGLSFQIEYHGDTFKITVQ [K30Y]	1.92
TYTFKVDNKDQAKKAAKWAKKLGLSFQIEHHGDTFKITVQ [K30H]	1.91
TYTFKVDNKDQAKKAAKWAKKLGLSFQTEKHGDTFKITVQ [I28T]	0.849
TYTFKVDNKDQAKKAAKWAKKLGLSFQGEKHGDTFKITVQ [I28G]	-0.457
TYTFKVDNKDQAKKAAKWAKKLGLSFQVEKHGDTFKITVQ [I28V]	2.23
TYTFKVDNKDQAKKAAKWAKKLGLSFQSEKHGDTFKITVQ [I28S]	1.26
TYTFKVDNKDQAKKAAKWAKKLGLSFQHEKHGDTFKITVQ [I28H]	0.125
TYTFKVDNKDQAKKAAKWAKKLGLSFQWEKHGDTFKITVQ [I28W]	1.53
TYTFKVDNKDQAKKAAKWAKKLGLSFQKEKHGDTFKITVQ [I28K]	1.06
TYTFKVDNKDQAKKAAKWAKKLGLSFQNEKHGDTFKITVQ [I28N]	-0.243
TYTFKVDNKDQAKKAAKWAKKLGLSFQYEKHGDTFKITVQ [I28Y]	1.33
TYTFKVDNKDQAKKAAKWAKKLGLSFQREKHGDTFKITVQ [I28R]	0.785
TYTFKVDNKDQAKKAAKWAKKLGLSFQQEKHGDTFKITVQ [I28Q]	0.977
TYTFKVDNKDQAKKAAKWAKKLGLSFQAEKHGDTFKITVQ [I28A]	1.42

Variant	folding stability dG [kcal/mol]
TYTFKVDNKDQAKKAAKWAKKLGLSFQMEKHGDTFKITVQ [I28M]	2.15
TYTFKVDNKDQAKKAAKWAKKLGLSFQLEKHGDTFKITVQ [I28L]	1.84
TYTFKVDNKDQAKKAAKWAKKLGLSFQEEKHGDTFKITVQ [I28E]	0.501
TYTFKVDNKDQAKKAAKWAKKLGLSFQFEKHGDTFKITVQ [I28F]	1.47
TYTFKVDNKDQAKKAAKWAKKLGLSFQIKKHGDTFKITVQ [E29K]	2.07
TYTFKVDNKDQAKKAAKWAKKLGLSFQIGKHGDTFKITVQ [E29G]	1.19
TYTFKVDNKDQAKKAAKWAKKLGLSFQISKHGDTFKITVQ [E29S]	2.27
TYTFKVDNKDQAKKAAKWAKKLGLSFQIYKHGDTFKITVQ [E29Y]	1.95
TYTFKVDNKDQAKKAAKWAKKLGLSFQIRKHGDTFKITVQ [E29R]	2.11
TYTFKVDNKDQAKKAAKWAKKLGLSFQIHKHGDTFKITVQ [E29H]	2.01
TYTFKVDNKDQAKKAAKWAKKLGLSFQIAKHGDTFKITVQ [E29A]	2.06
TYTFKVDNKDQAKKAAKWAKKLGLSFQIVKHGDTFKITVQ [E29V]	2.43
TYTFKVDNKDQAKKAAKWAKKLGLSFQIDKHGDTFKITVQ [E29D]	1.93
TYTFKVDNKDQAKKAAKWAKKLGLSFQIFKHGDTFKITVQ [E29F]	1.95
TYTFKVDNKDQAKKAAKWAKKLGLSFQIIKHGDTFKITVQ [E29I]	2.24
TYTFKVDNKDQAKKAAKWAKKLGLSFQITKHGDTFKITVQ [E29T]	2.48
TYTFKVDNKDQAKKAAKWAKKLGLSFQINKHGDTFKITVQ [E29N]	1.77
TYTFKVDNKDQAKKAAKWAKKLGLSFQIMKHGDTFKITVQ [E29M]	2.05
TYTFKVDNKDQAKKAAKWAKKLGLSFQICKHGDTFKITVQ [E29C]	2.64
TYTFKVDNKDQAKKAAKWAKKLGLSFQILKHGDTFKITVQ [E29L]	1.89
TYTFKVDNKDQAKKAAKWAKKLGLSFQIQKHGDTFKITVQ [E29Q]	2.19
TYTFKVDNKDQAKKAAKWAKKLGLSFQIWKHGDTFKITVQ [E29W]	2
TYTFKVDNKDQAKKAAKWAKKLGYSFQIEKHGDTFKITVQ [L24Y]	2.33
TYTFKVDNKDQAKKAAKWAKKLGWSFQIEKHGDTFKITVQ [L24W]	2.04
TYTFKVDNKDQAKKAAKWAKKLGVSFQIEKHGDTFKITVQ [L24V]	1.4
